± gives the uncertainty stated by the source.
Assay: protein stability index of a GFP-peptide fusion (yeast GPS) (PSI 1-4); higher = more stable; sorted into four equal gates, so the index is relative within each strain
In short: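 Tiled yeast protein peptides of 17 residues were each joined downstream of GFP, on plasmids that also express Cherry. The pooled library was maintained in yeast, and mid-log cultures in leucine-free medium were sorted into four equal gates on the GFP/Cherry ratio. Plasmids from every gate were amplified by PCR and sequenced on Illumina, with barcodes linking reads to strains. The protein stability index of a peptide is its gate-number-weighted read frequency summed over the gates.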

Row | Sequence | protein stability index (doa10∆) | protein stability index (pdr5∆) | protein stability index (san1∆) | protein stability index (ubr1∆)
1 | IAVLIELLEERFQDSNP [YCS4] | 1.62 ± 0.032 | 2.06 ± 0.058 | 2.66 ± 0.063 | 2.82 ± 0.069
2 | ICEDPETAKKITFHPKI [SMC2] | 2.84 ± 0.1 | 2.74 ± 0.084 | 2.16 ± 0.28 | 2.9 ± 0.077
3 | IDAALDKQYRTAVATLL [SMC3] | 1.87 ± 0.093 | 2.17 ± 0.079 | 2.65 ± 0.12 | 2.82 ± 0.081
4 | IDEDKLYPSFKPIYKDT [SSN2] | 2.99 ± 0.095 | 3.04 ± 0.11 | 3 ± 0.053 | 3.17 ± 0.092
5 | IDESLFNLLILSLNKRI [YCG1] | 2.75 ± 0.072 | 2.25 ± 0.062 | 2.03 ± 0.077 | 2.15 ± 0.033
6 | IDEVFSWYLNTFDGIRM [GRR1] | 2.42 ± 0.049 | 1.83 ± 0.039 | 2.14 ± 0.062 | 1.88 ± 0.039
7 | IDFAPTSPFGGARPGRV [RPS9A] | 2.82 ± 0.072 | 2.53 ± 0.074 | 2.62 ± 0.074 | 2.74 ± 0.05
8 | IDFFKTDDSFEDKVFAS [BRN1] | 3.02 ± 0.13 | 2.88 ± 0.06 | 3 ± 0.093 | 2.89 ± 0.06
9 | IDKLEDLSRIMDWLDNW [ITC1] | 2.58 ± 0.29 | 2.67 ± 0.23 | – | –
10 | IDKNHGFERLTVNEPQM [SRB7] | 3.03 ± 0.094 | 3.25 ± 0.075 | 3.23 ± 0.14 | 3.02 ± 0.052
11 | IDLCHDFPHLTPKLQTQ [YCS4] | 2.6 ± 0.042 | 2.65 ± 0.038 | 2.63 ± 0.042 | 2.49 ± 0.035
12 | IDLLTFQYGSRLPTFLK [RPP1] | 1.89 ± 0.064 | 1.84 ± 0.052 | 1.6 ± 0.081 | 1.57 ± 0.047
13 | IDLLWKGKTPKNAAESS [PRP28] | 2.86 ± 0.17 | 3.12 ± 0.18 | 2.91 ± 0.15 | 3.14 ± 0.13
14 | IDNSPQAISYLHKLQRM [GRR1] | 2.96 ± 0.058 | 2.48 ± 0.047 | 2.4 ± 0.045 | 2.69 ± 0.039
15 | IDSVEVETNTTVLADEF [RPB3] | 2.96 ± 0.076 | 3.17 ± 0.071 | 3.09 ± 0.051 | 3.16 ± 0.037
16 | IDVDMDASPAPSNESCS [SRB5] | 2.6 ± 0.053 | 2.58 ± 0.05 | 2.66 ± 0.057 | 2.32 ± 0.049
17 | IEAEEAEEIGVEHLLRD [RPN8] | 3.1 ± 0.19 | – | 3.15 ± 0.13 | 3.23 ± 0.068
18 | IEANVTVKTSDDYVLRI [RPS1A] | 2.98 ± 0.035 | 2.9 ± 0.038 | 2.96 ± 0.036 | 2.726 ± 0.027
19 | IEDRDFLVRYACEPTAE [SIR3] | 2.28 ± 0.064 | 2.83 ± 0.067 | 2.53 ± 0.074 | 3.08 ± 0.069
20 | IEEQGWGGFPLDISVFL [TAF14] | 3.38 ± 0.063 | 3.4 ± 0.053 | 3.35 ± 0.048 | 3.33 ± 0.047
21 | IEIMGILMGFTLKDNIV [RRI1] | 2.46 ± 0.097 | 2.15 ± 0.076 | 2.81 ± 0.12 | 2.55 ± 0.083
22 | IEKFEQVPDSLDDQIFV [RPN6] | 3.31 ± 0.079 | 3.35 ± 0.065 | 3.53 ± 0.053 | 3.27 ± 0.079
23 | IEKNVMESIGSDILTAE [RRP4] | 2.78 ± 0.092 | 3.04 ± 0.19 | 2.95 ± 0.2 | –
24 | IEKVDRENMICKIDFQK [RRI2] | 3.04 ± 0.11 | 3.03 ± 0.1 | 3.18 ± 0.063 | 3.15 ± 0.065
25 | IELSVPDRQSMDSRVAH [SRB5] | 3.11 ± 0.17 | 2.96 ± 0.14 | 3.17 ± 0.13 | 3.16 ± 0.089
26 | IEQCKHPLHELIIQYPP [ISW2] | 3.19 ± 0.1 | 2.82 ± 0.094 | 2.59 ± 0.1 | 3.1 ± 0.068

Row | Sequence | protein stability index (doa10∆) | protein stability index (pdr5∆) | protein stability index (san1∆) | protein stability index (ubr1∆)
27 | IEQEKQEQQEQDKKKKS [PRE6] | 2.17 ± 0.069 | 1.82 ± 0.06 | 2.59 ± 0.077 | 1.59 ± 0.049
28 | IESQMRDLILTEYGRKY [PRP8] | 2.2 ± 0.1 | 2.04 ± 0.073 | 1.98 ± 0.098 | 3.03 ± 0.092
29 | IETEFLLFTVKLKGLMK [IRR1] | 3.12 ± 0.14 | 3.06 ± 0.22 | 2.98 ± 0.12 | 3.28 ± 0.12
30 | IETVDDKLKDIVGQTSR [ITC1] | 3.25 ± 0.07 | 3.01 ± 0.075 | 3.17 ± 0.086 | 3.03 ± 0.14
31 | IEWAEHHRDSNFPDEDD [SKP1] | 3.1 ± 0.065 | 3.17 ± 0.059 | 3.08 ± 0.046 | 3.33 ± 0.057
32 | IFGGAGGVPTTSFGQPQ [YOR098C/NUP1] | 1.57 ± 0.061 | 1.58 ± 0.074 | 1.55 ± 0.11 | 1.4 ± 0.053
33 | IFLHSLPVKEFQIIDTL [RPS2] | 2.49 ± 0.12 | 2.54 ± 0.089 | 2.44 ± 0.073 | 2.49 ± 0.061
34 | IFQAKRNSNPENTVGLI [RPN10] | 3.17 ± 0.1 | 3.27 ± 0.087 | 2.92 ± 0.074 | 3.21 ± 0.11
35 | IGGSDAAFEKRYRVDLL [RPO21] | 3.32 ± 0.074 | 3.39 ± 0.067 | 3.25 ± 0.04 | 3.32 ± 0.053
36 | IGGSLARIALRHLEKEG [RPS25A] | 2.52 ± 0.068 | 2.5 ± 0.054 | 1.82 ± 0.082 | 2.51 ± 0.06
37 | IGIAGAHRVRDLMDEEL [SKI6] | 3.38 ± 0.13 | 3.36 ± 0.11 | 2.94 ± 0.088 | 3.07 ± 0.13
38 | IGISIVGRFSTISSADF [ECM29] | 2.81 ± 0.24 | 2.54 ± 0.092 | 3.12 ± 0.3 | 2.26 ± 0.19
39 | IGLPRHSLAYLLENFAN [RRP6] | 1.67 ± 0.04 | 1.78 ± 0.041 | 1.64 ± 0.072 | 1.87 ± 0.025
40 | IGSNGSGKSNFFAAIRF [SMC3] | 3.03 ± 0.068 | 3.07 ± 0.066 | 3.02 ± 0.05 | 3.05 ± 0.039
41 | IGSQRGRRLSMLASQAN [DSN1] | 1.75 ± 0.057 | 2.47 ± 0.068 | 1.88 ± 0.096 | 2.18 ± 0.047
42 | IHGQDFQFFPKELDALQ [ISW2] | 2.62 ± 0.048 | 2.75 ± 0.053 | 3.11 ± 0.037 | 2.78 ± 0.041
43 | IHLYMLTFHTLKKANII [YLR018C/POM34] | 1.31 ± 0.051 | 1.27 ± 0.06 | 1.21 ± 0.12 | 1.09 ± 0.042
44 | IHQNAGRLLRAMFEICL [BRR2] | 1.85 ± 0.053 | 1.75 ± 0.054 | 2.21 ± 0.063 | 2.83 ± 0.048
45 | IHSKSMSVERGIRWELI [RPT1] | 3.06 ± 0.068 | 3 ± 0.073 | 2.88 ± 0.071 | 3.04 ± 0.063
46 | IHSLIPVAKWFVKFITY [SIN4] | 2.7 ± 0.048 | 2.52 ± 0.04 | 2.77 ± 0.044 | 2.79 ± 0.04
47 | IHSMNENPTPEKGNAKM [SIR3] | 2.94 ± 0.087 | 2.67 ± 0.069 | 3.03 ± 0.059 | 2.87 ± 0.048
48 | IHVLEQDGGIMGSLING [SKI6] | 3.45 ± 0.09 | 3.1 ± 0.1 | 3.36 ± 0.082 | 3.18 ± 0.066
49 | IIELPNEKFEIELLSLD [SRB4] | 2.68 ± 0.056 | 2.99 ± 0.066 | 2.84 ± 0.052 | 2.68 ± 0.048
50 | IIGKTTPISPDEEELGQ [RPB2] | – | – | 2.81 ± 0.23 | 2.98 ± 0.29
51 | IIGPNGSGKSNMMDAIS [SMC1] | 3.06 ± 0.13 | 3.24 ± 0.089 | 3.03 ± 0.075 | 3.28 ± 0.05
